In US20210338724A1:

Experiments:
TGFβ1 (R&D systems) = TGFβ1 (R&D systems) (UniProt P01137); test: cell-based or functional assay
[1] = target: IL-18/TF/IL-15:IL-12/IL-15RαSu protein complex (18t15-12s) (human); test: sandwich ELISA; the concentration is that of the titrated 18t15-12s; anti-human tissue factor capture, BAM 247 detection at a fixed concentration
[2] = target: IL-18/TF/IL-15:IL-12/IL-15RαSu protein complex (18t15-12s) (human); test: sandwich ELISA; the concentration is that of the titrated 18t15-12s; anti-human tissue factor capture, D045-6 detection at a fixed concentration
[3] = target: IL-2Rα, IL-2Rβ and common γ chain on CTLL-2 cells; test: cell-based or functional assay
[4] = target: IL-2Rβ and common γ chain on 32Dβ cells; test: cell-based or functional assay

Chain of IL-18/TF/IL-15:IL-12/IL-15RαSu protein complex (18t15-12s) (human) (chain, as listed by the source, chain 1 of 2): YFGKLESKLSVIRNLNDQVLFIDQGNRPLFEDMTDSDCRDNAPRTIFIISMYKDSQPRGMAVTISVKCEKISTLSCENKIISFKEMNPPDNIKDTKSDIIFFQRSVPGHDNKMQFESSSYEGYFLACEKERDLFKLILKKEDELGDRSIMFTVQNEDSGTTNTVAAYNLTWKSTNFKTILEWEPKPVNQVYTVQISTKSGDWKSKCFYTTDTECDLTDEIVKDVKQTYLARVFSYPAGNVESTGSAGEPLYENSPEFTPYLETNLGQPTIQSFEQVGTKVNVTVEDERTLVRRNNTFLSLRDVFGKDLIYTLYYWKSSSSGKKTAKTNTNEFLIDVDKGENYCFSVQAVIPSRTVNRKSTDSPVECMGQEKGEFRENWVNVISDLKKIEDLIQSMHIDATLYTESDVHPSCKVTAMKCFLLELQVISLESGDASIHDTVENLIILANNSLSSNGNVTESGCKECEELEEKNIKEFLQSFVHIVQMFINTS
Chain of IL-18/TF/IL-15:IL-12/IL-15RαSu protein complex (18t15-12s) (human) (chain, as listed by the source, chain 2 of 2): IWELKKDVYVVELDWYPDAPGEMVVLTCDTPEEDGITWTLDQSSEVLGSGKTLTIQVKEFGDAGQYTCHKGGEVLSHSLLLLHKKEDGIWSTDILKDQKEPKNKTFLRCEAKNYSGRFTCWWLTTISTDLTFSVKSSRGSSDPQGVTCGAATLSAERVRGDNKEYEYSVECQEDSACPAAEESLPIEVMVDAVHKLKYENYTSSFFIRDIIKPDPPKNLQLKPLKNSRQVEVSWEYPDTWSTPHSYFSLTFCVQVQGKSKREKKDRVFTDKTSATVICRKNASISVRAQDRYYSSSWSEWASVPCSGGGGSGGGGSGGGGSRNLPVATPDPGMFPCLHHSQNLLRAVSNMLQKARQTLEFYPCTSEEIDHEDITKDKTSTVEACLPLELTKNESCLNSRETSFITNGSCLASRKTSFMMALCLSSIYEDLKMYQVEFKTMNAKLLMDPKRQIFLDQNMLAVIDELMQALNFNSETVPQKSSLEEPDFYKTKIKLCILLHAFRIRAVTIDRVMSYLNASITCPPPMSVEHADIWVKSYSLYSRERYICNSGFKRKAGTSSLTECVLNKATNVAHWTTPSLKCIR
Chain of UniProt P01137 (P01137 279-390 limits assumed): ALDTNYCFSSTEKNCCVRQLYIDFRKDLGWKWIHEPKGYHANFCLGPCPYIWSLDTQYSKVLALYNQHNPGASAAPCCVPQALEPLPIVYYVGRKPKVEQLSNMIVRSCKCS

| Substance | EC50, CTLL-2 cell proliferation (WST1) [3] [pM] | EC50, 32Dβ cell proliferation (WST1) [4] [pM] | other results |
| --- | --- | --- | --- |
| TGFR-Fc (R&D Systems) (Fc fusion) |  |  | IC50, inhibition of TGFβ1 activity in HEK-Blue TGFβ reporter cells (QUANTI-Blue OD) (TGFβ1 (R&D systems)): 461 pM |
| biotinylated anti-human IL-15 detection antibody (BAM 247) |  |  | EC50 (read off the curve) [1]: 10 ng/mL |
| biotinylated anti-human IL-18 detection antibody (D045-6) |  |  | EC50 (read off the curve) [2]: 30 ng/mL |
| recombinant IL2 (Proleukin) (from UniProt P60568 22-153) (ligand) | 253 | 65.5 |  |
| recombinant IL-2 (from UniProt P60568 21-153) (ligand) | 548 | 140 |  |
| recombinant IL-15 (from UniProt P40933 49-162) (ligand) |  | 10.6 |  |
